# Reference: patent publication US20150147764
# Tests used:
# [1] = system: FRETS-VWF73 polypeptide substrate (SEQ ID NO: 6), VWF D1596 to R1668
# [2] = system: GTI_FRET4 polypeptide substrate (SEQ ID NO: 1), synthetic 62 amino acid VWF A2 domain derived substrate
# [3] = system: GTI_FRET5 polypeptide substrate (SEQ ID NO: 7), synthetic 55 amino acid VWF A2 domain derived substrate
# GTI_FRET5 polypeptide substrate (SEQ ID NO: 7), synthetic 55 amino acid VWF A2 domain derived substrate, sequence (chain, as listed by the source): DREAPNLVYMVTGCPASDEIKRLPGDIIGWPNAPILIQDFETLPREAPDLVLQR
# GTI_FRET4 polypeptide substrate (SEQ ID NO: 1), synthetic 62 amino acid VWF A2 domain derived substrate, sequence (chain, as listed by the source): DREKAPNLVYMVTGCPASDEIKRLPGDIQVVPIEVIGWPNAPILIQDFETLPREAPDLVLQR
# FRETS-VWF73 polypeptide substrate (SEQ ID NO: 6), VWF D1596 to R1668, sequence (chain, as listed by the source): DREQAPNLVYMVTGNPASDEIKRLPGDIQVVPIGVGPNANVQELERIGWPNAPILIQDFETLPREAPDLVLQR
substance,measurement,setting,value
"ADAMTS13 (a disintegrin-like and metallopeptidase with thrombospondin type-1 motif, 13), as present in plasma samples, calibrators and controls",RFU difference between Calibrator A and Calibrator E at 30 minutes,[1],approximately 1500 to 2000 RFU difference
same,RFU difference between Calibrator A and E at 30 minutes,[1],2500 RFU observed for FRETS-VWF73
same,"Increase in fluorescence (15 min - 0 min reading), sample Calibrator A",[2],676 RFU
same,"Increase in fluorescence (15 min - 0 min reading), sample Calibrator B",[2],1760 RFU
same,"Increase in fluorescence (15 min - 0 min reading), sample Calibrator C",[2],6180 RFU
same,"Increase in fluorescence (15 min - 0 min reading), sample Calibrator D",[2],10900 RFU
same,"Increase in fluorescence (15 min - 0 min reading), sample Calibrator E",[2],18700 RFU
same,"Increase in fluorescence (15 min - 0 min reading), sample MON110707",[2],17900 RFU
same,"Increase in fluorescence (15 min - 0 min reading), sample Positive Control High",[2],9150 RFU
same,"Increase in fluorescence (15 min - 0 min reading), sample Positive Control Low",[2],2180 RFU
same,"Increase in fluorescence (15 min - 0 min reading), sample UAMS041609",[2],3880 RFU
same,"Increase in fluorescence (15 min - 0 min reading), sample VF",[2],1290 RFU
same,"Increase in fluorescence (30 min - 0 min reading), sample Calibrator A",[2],843 RFU
same,"Increase in fluorescence (30 min - 0 min reading), sample Calibrator B",[2],3000 RFU
same,"Increase in fluorescence (30 min - 0 min reading), sample Calibrator C",[2],11700 RFU
same,"Increase in fluorescence (30 min - 0 min reading), sample Calibrator D",[2],20600 RFU
same,"Increase in fluorescence (30 min - 0 min reading), sample Calibrator E",[2],35100 RFU
same,"Increase in fluorescence (30 min - 0 min reading), sample MON110707",[2],33400 RFU
same,"Increase in fluorescence (30 min - 0 min reading), sample Positive Control High",[2],17300 RFU
same,"Increase in fluorescence (30 min - 0 min reading), sample Positive Control Low",[2],3900 RFU
same,"Increase in fluorescence (30 min - 0 min reading), sample UAMS041609",[2],7930 RFU
same,"Increase in fluorescence (30 min - 0 min reading), sample VF",[2],2440 RFU
same,"Increase in fluorescence (45 min - 0 min reading), sample Calibrator A",[2],921 RFU
same,"Increase in fluorescence (45 min - 0 min reading), sample Calibrator B",[2],4160 RFU
same,"Increase in fluorescence (45 min - 0 min reading), sample Calibrator C",[2],16800 RFU
same,"Increase in fluorescence (45 min - 0 min reading), sample Calibrator D",[2],29200 RFU
same,"Increase in fluorescence (45 min - 0 min reading), sample Calibrator E",[2],49400 RFU
same,"Increase in fluorescence (45 min - 0 min reading), sample MON110707",[2],46800 RFU
same,"Increase in fluorescence (45 min - 0 min reading), sample Positive Control High",[2],24900 RFU
same,"Increase in fluorescence (45 min - 0 min reading), sample Positive Control Low",[2],5510 RFU
same,"Increase in fluorescence (45 min - 0 min reading), sample UAMS041609",[2],11700 RFU
same,"Increase in fluorescence (45 min - 0 min reading), sample VF",[2],3550 RFU
same,"Increase in fluorescence (60 min - 0 min reading), sample Calibrator A",[2],1170 RFU
same,"Increase in fluorescence (60 min - 0 min reading), sample Calibrator B",[2],5360 RFU
same,"Increase in fluorescence (60 min - 0 min reading), sample Calibrator C",[2],21700 RFU
same,"Increase in fluorescence (60 min - 0 min reading), sample Calibrator D",[2],37300 RFU
same,"Increase in fluorescence (60 min - 0 min reading), sample Calibrator E",[2],61100 RFU
same,"Increase in fluorescence (60 min - 0 min reading), sample MON110707",[2],58700 RFU
same,"Increase in fluorescence (60 min - 0 min reading), sample Positive Control High",[2],31900 RFU
same,"Increase in fluorescence (60 min - 0 min reading), sample Positive Control Low",[2],7170 RFU
same,"Increase in fluorescence (60 min - 0 min reading), sample UAMS041609",[2],15900 RFU
same,"Increase in fluorescence (60 min - 0 min reading), sample VF",[2],4690 RFU
same,"Increase in fluorescence (75 min - 0 min reading), sample Calibrator A",[2],1010 RFU
same,"Increase in fluorescence (75 min - 0 min reading), sample Calibrator B",[2],6470 RFU
same,"Increase in fluorescence (75 min - 0 min reading), sample Calibrator C",[2],26700 RFU
same,"Increase in fluorescence (75 min - 0 min reading), sample Calibrator D",[2],44500 RFU
same,"Increase in fluorescence (75 min - 0 min reading), sample Calibrator E",[2],70600 RFU
same,"Increase in fluorescence (75 min - 0 min reading), sample MON110707",[2],68400 RFU
same,"Increase in fluorescence (75 min - 0 min reading), sample Positive Control High",[2],39800 RFU
same,"Increase in fluorescence (75 min - 0 min reading), sample Positive Control Low",[2],8790 RFU
same,"Increase in fluorescence (75 min - 0 min reading), sample UAMS041609",[2],19900 RFU
same,"Increase in fluorescence (75 min - 0 min reading), sample VF",[2],5780 RFU
same,"Increase in fluorescence (90 min - 0 min reading), sample Calibrator A",[2],959 RFU
same,"Increase in fluorescence (90 min - 0 min reading), sample Calibrator B",[2],7580 RFU
same,"Increase in fluorescence (90 min - 0 min reading), sample Calibrator C",[2],32200 RFU
same,"Increase in fluorescence (90 min - 0 min reading), sample Calibrator D",[2],53600 RFU
same,"Increase in fluorescence (90 min - 0 min reading), sample Calibrator E",[2],83000 RFU
same,"Increase in fluorescence (90 min - 0 min reading), sample MON110707",[2],78400 RFU
same,"Increase in fluorescence (90 min - 0 min reading), sample Positive Control High",[2],47500 RFU
same,"Increase in fluorescence (90 min - 0 min reading), sample Positive Control Low",[2],10400 RFU
same,"Increase in fluorescence (90 min - 0 min reading), sample UAMS041609",[2],24700 RFU
same,"Increase in fluorescence (90 min - 0 min reading), sample VF",[2],7260 RFU
same,RFU difference between Calibrator A (0% ADAMTS13 activity) and Calibrator E (100% ADAMTS13 activity) at 30 minutes,[2],"approximately 34,000 Relative Fluorescence Units (RFU) difference"
same,RFU difference between Calibrator A and E at 30 minutes,[2],approximately 35000 RFU
same,calibration curve / cleavage,[3],the resulting calibration curve that is obtained is linear (see FIG. 5) and cleavage of the substrate occurs
same,change in fluorescence with time (cleavage),[3],demonstrates that cleavage of the SEQ ID NO: 7 polypeptide substrate occurs
